Data from patent US20240270846A1 (published 2024).

target: T1, CD3 epsilon homodimer protein (UniProt P07766 23-126); test: SPR (Biacore T200), CD3 epsilon homodimer on CM4 chip, one-arm antibody as analyte; ratio to unaltered CE115HA000;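 also: surface plasmon resonance run at 25 °C with HBS-EP+ as running buffer, CD3 epsilon homodimer attached by amine coupling, antibody passed over as analyte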
T1 construct: Construct of the homodimer protein is not described; also called CD3 (CD3 epsilon)
T1 sequence (P07766 23-126): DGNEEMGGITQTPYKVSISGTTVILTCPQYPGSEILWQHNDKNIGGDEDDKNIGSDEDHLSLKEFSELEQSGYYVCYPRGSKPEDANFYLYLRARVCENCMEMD

Row | Binder | KD ratio (KD value of CE115HA000/KD value of the altered form)
1 | CE115HA000 D73K one-arm antibody (antibody, human IgG1, kappa, L234A L235A, N297A, name in Kabat numbering, one-arm antibody) heavy: QVQLVESGGGVVQPGRSLRLSCAASGFTFSNAWMHWVRQAPGKGLEWVAQIKAKSNNYATYYAESVKGRFTISRDKSKNSLYLQMNSLKTEDTAVYYCRYVHYGAYYGVDAWGQGTTVTVSSASTKGPSVFPLAPSSKSTSGGTAALGCLVKDYFPEPVTVSWNSGALTSGVHTFPAVLQSSGLYSLSSVVTVPSSSLGTQTYICNVNHKPSNTKVDKKVEPKSCDKTHTCPPCPAPEAAGGPSVFLFPPKPKDTLMISRTPEVTCVVVDVSHEDPEVKFNWYVDGVEVHNAKTKPREEQYASTYRVVSVLTVLHQDWLNGKEYKCKVSNKALPAPIEKTISKAKGQPREPQVYTLPPSRCELTKNQVSLSCAVKGFYPSDIAVEWESNGQPENNYKTTPPVLDSDGSFFLVSKLTVDKSRWQQGNVFSCSVMHEALHNHYTQKSLSLSPDYKDDDDK EPKSSDKTHTCPPCPAPELLGGPSVFLFPPKPKDTLMISRTPEVTCVVVDVSHEDPEVKFNWYVDGVEVHNAKTKPREEQYNSTYRVVSVLTVLHQDWLNGKEYKCKVSNKALPAPIEKTISKAKGQPREPQVCTLPPSRDELTKNQVSLWCLVKGFYPSDIAVEWESNGQPENNYKTTPPVLDSDGSFFLYSKLTVDKSRWQQGNVFSCSVMHEALHNRYTQKSLSLSP light: DIVMTQSPLSLPVTPGEPASISCRSSQSLVHSNRNTYLHWYQQKPGQAPRLLIYKVSNRFSGVPDRFSGSGSGTDFTLKISRVEAEDVGVYYCGQGTQVPYTFGQGTKLEIKRTVAAPSVFIFPPSDEQLKSGTASVVCLLNNFYPREAKVQWKVDNALQSGNSQESVTEQDSKDSTYSLSSTLTLSKADYEKHKVYACEVTHQGLSSPVTKSFNRGEC | 0.74
2 | CE115HA000 D101G one-arm antibody (antibody, human IgG1, kappa, L234A L235A, N297A, name in Kabat numbering, one-arm antibody) heavy: QVQLVESGGGVVQPGRSLRLSCAASGFTFSNAWMHWVRQAPGKGLEWVAQIKAKSNNYATYYAESVKGRFTISRDDSKNSLYLQMNSLKTEDTAVYYCRYVHYGAYYGVGAWGQGTTVTVSSASTKGPSVFPLAPSSKSTSGGTAALGCLVKDYFPEPVTVSWNSGALTSGVHTFPAVLQSSGLYSLSSVVTVPSSSLGTQTYICNVNHKPSNTKVDKKVEPKSCDKTHTCPPCPAPEAAGGPSVFLFPPKPKDTLMISRTPEVTCVVVDVSHEDPEVKFNWYVDGVEVHNAKTKPREEQYASTYRVVSVLTVLHQDWLNGKEYKCKVSNKALPAPIEKTISKAKGQPREPQVYTLPPSRCELTKNQVSLSCAVKGFYPSDIAVEWESNGQPENNYKTTPPVLDSDGSFFLVSKLTVDKSRWQQGNVFSCSVMHEALHNHYTQKSLSLSPDYKDDDDK EPKSSDKTHTCPPCPAPELLGGPSVFLFPPKPKDTLMISRTPEVTCVVVDVSHEDPEVKFNWYVDGVEVHNAKTKPREEQYNSTYRVVSVLTVLHQDWLNGKEYKCKVSNKALPAPIEKTISKAKGQPREPQVCTLPPSRDELTKNQVSLWCLVKGFYPSDIAVEWESNGQPENNYKTTPPVLDSDGSFFLYSKLTVDKSRWQQGNVFSCSVMHEALHNRYTQKSLSLSP light: DIVMTQSPLSLPVTPGEPASISCRSSQSLVHSNRNTYLHWYQQKPGQAPRLLIYKVSNRFSGVPDRFSGSGSGTDFTLKISRVEAEDVGVYYCGQGTQVPYTFGQGTKLEIKRTVAAPSVFIFPPSDEQLKSGTASVVCLLNNFYPREAKVQWKVDNALQSGNSQESVTEQDSKDSTYSLSSTLTLSKADYEKHKVYACEVTHQGLSSPVTKSFNRGEC | 3.16
3 | CE115HA000 D73N one-arm antibody (antibody, human IgG1, kappa, L234A L235A, N297A, name in Kabat numbering, one-arm antibody) heavy: QVQLVESGGGVVQPGRSLRLSCAASGFTFSNAWMHWVRQAPGKGLEWVAQIKAKSNNYATYYAESVKGRFTISRDNSKNSLYLQMNSLKTEDTAVYYCRYVHYGAYYGVDAWGQGTTVTVSSASTKGPSVFPLAPSSKSTSGGTAALGCLVKDYFPEPVTVSWNSGALTSGVHTFPAVLQSSGLYSLSSVVTVPSSSLGTQTYICNVNHKPSNTKVDKKVEPKSCDKTHTCPPCPAPEAAGGPSVFLFPPKPKDTLMISRTPEVTCVVVDVSHEDPEVKFNWYVDGVEVHNAKTKPREEQYASTYRVVSVLTVLHQDWLNGKEYKCKVSNKALPAPIEKTISKAKGQPREPQVYTLPPSRCELTKNQVSLSCAVKGFYPSDIAVEWESNGQPENNYKTTPPVLDSDGSFFLVSKLTVDKSRWQQGNVFSCSVMHEALHNHYTQKSLSLSPDYKDDDDK EPKSSDKTHTCPPCPAPELLGGPSVFLFPPKPKDTLMISRTPEVTCVVVDVSHEDPEVKFNWYVDGVEVHNAKTKPREEQYNSTYRVVSVLTVLHQDWLNGKEYKCKVSNKALPAPIEKTISKAKGQPREPQVCTLPPSRDELTKNQVSLWCLVKGFYPSDIAVEWESNGQPENNYKTTPPVLDSDGSFFLYSKLTVDKSRWQQGNVFSCSVMHEALHNRYTQKSLSLSP light: DIVMTQSPLSLPVTPGEPASISCRSSQSLVHSNRNTYLHWYQQKPGQAPRLLIYKVSNRFSGVPDRFSGSGSGTDFTLKISRVEAEDVGVYYCGQGTQVPYTFGQGTKLEIKRTVAAPSVFIFPPSDEQLKSGTASVVCLLNNFYPREAKVQWKVDNALQSGNSQESVTEQDSKDSTYSLSSTLTLSKADYEKHKVYACEVTHQGLSSPVTKSFNRGEC | 0.7
4 | CE115HA000 D101F one-arm antibody (antibody, human IgG1, kappa, L234A L235A, N297A, name in Kabat numbering, one-arm antibody) heavy: QVQLVESGGGVVQPGRSLRLSCAASGFTFSNAWMHWVRQAPGKGLEWVAQIKAKSNNYATYYAESVKGRFTISRDDSKNSLYLQMNSLKTEDTAVYYCRYVHYGAYYGVFAWGQGTTVTVSSASTKGPSVFPLAPSSKSTSGGTAALGCLVKDYFPEPVTVSWNSGALTSGVHTFPAVLQSSGLYSLSSVVTVPSSSLGTQTYICNVNHKPSNTKVDKKVEPKSCDKTHTCPPCPAPEAAGGPSVFLFPPKPKDTLMISRTPEVTCVVVDVSHEDPEVKFNWYVDGVEVHNAKTKPREEQYASTYRVVSVLTVLHQDWLNGKEYKCKVSNKALPAPIEKTISKAKGQPREPQVYTLPPSRCELTKNQVSLSCAVKGFYPSDIAVEWESNGQPENNYKTTPPVLDSDGSFFLVSKLTVDKSRWQQGNVFSCSVMHEALHNHYTQKSLSLSPDYKDDDDK EPKSSDKTHTCPPCPAPELLGGPSVFLFPPKPKDTLMISRTPEVTCVVVDVSHEDPEVKFNWYVDGVEVHNAKTKPREEQYNSTYRVVSVLTVLHQDWLNGKEYKCKVSNKALPAPIEKTISKAKGQPREPQVCTLPPSRDELTKNQVSLWCLVKGFYPSDIAVEWESNGQPENNYKTTPPVLDSDGSFFLYSKLTVDKSRWQQGNVFSCSVMHEALHNRYTQKSLSLSP light: DIVMTQSPLSLPVTPGEPASISCRSSQSLVHSNRNTYLHWYQQKPGQAPRLLIYKVSNRFSGVPDRFSGSGSGTDFTLKISRVEAEDVGVYYCGQGTQVPYTFGQGTKLEIKRTVAAPSVFIFPPSDEQLKSGTASVVCLLNNFYPREAKVQWKVDNALQSGNSQESVTEQDSKDSTYSLSSTLTLSKADYEKHKVYACEVTHQGLSSPVTKSFNRGEC | 0.73
5 | CE115HA000 D73R one-arm antibody (antibody, human IgG1, kappa, L234A L235A, N297A, name in Kabat numbering, one-arm antibody) heavy: QVQLVESGGGVVQPGRSLRLSCAASGFTFSNAWMHWVRQAPGKGLEWVAQIKAKSNNYATYYAESVKGRFTISRDRSKNSLYLQMNSLKTEDTAVYYCRYVHYGAYYGVDAWGQGTTVTVSSASTKGPSVFPLAPSSKSTSGGTAALGCLVKDYFPEPVTVSWNSGALTSGVHTFPAVLQSSGLYSLSSVVTVPSSSLGTQTYICNVNHKPSNTKVDKKVEPKSCDKTHTCPPCPAPEAAGGPSVFLFPPKPKDTLMISRTPEVTCVVVDVSHEDPEVKFNWYVDGVEVHNAKTKPREEQYASTYRVVSVLTVLHQDWLNGKEYKCKVSNKALPAPIEKTISKAKGQPREPQVYTLPPSRCELTKNQVSLSCAVKGFYPSDIAVEWESNGQPENNYKTTPPVLDSDGSFFLVSKLTVDKSRWQQGNVFSCSVMHEALHNHYTQKSLSLSPDYKDDDDK EPKSSDKTHTCPPCPAPELLGGPSVFLFPPKPKDTLMISRTPEVTCVVVDVSHEDPEVKFNWYVDGVEVHNAKTKPREEQYNSTYRVVSVLTVLHQDWLNGKEYKCKVSNKALPAPIEKTISKAKGQPREPQVCTLPPSRDELTKNQVSLWCLVKGFYPSDIAVEWESNGQPENNYKTTPPVLDSDGSFFLYSKLTVDKSRWQQGNVFSCSVMHEALHNRYTQKSLSLSP light: DIVMTQSPLSLPVTPGEPASISCRSSQSLVHSNRNTYLHWYQQKPGQAPRLLIYKVSNRFSGVPDRFSGSGSGTDFTLKISRVEAEDVGVYYCGQGTQVPYTFGQGTKLEIKRTVAAPSVFIFPPSDEQLKSGTASVVCLLNNFYPREAKVQWKVDNALQSGNSQESVTEQDSKDSTYSLSSTLTLSKADYEKHKVYACEVTHQGLSSPVTKSFNRGEC | 0.79
6 | CE115HA000 D73T one-arm antibody (antibody, human IgG1, kappa, L234A L235A, N297A, name in Kabat numbering, one-arm antibody) heavy: QVQLVESGGGVVQPGRSLRLSCAASGFTFSNAWMHWVRQAPGKGLEWVAQIKAKSNNYATYYAESVKGRFTISRDTSKNSLYLQMNSLKTEDTAVYYCRYVHYGAYYGVDAWGQGTTVTVSSASTKGPSVFPLAPSSKSTSGGTAALGCLVKDYFPEPVTVSWNSGALTSGVHTFPAVLQSSGLYSLSSVVTVPSSSLGTQTYICNVNHKPSNTKVDKKVEPKSCDKTHTCPPCPAPEAAGGPSVFLFPPKPKDTLMISRTPEVTCVVVDVSHEDPEVKFNWYVDGVEVHNAKTKPREEQYASTYRVVSVLTVLHQDWLNGKEYKCKVSNKALPAPIEKTISKAKGQPREPQVYTLPPSRCELTKNQVSLSCAVKGFYPSDIAVEWESNGQPENNYKTTPPVLDSDGSFFLVSKLTVDKSRWQQGNVFSCSVMHEALHNHYTQKSLSLSPDYKDDDDK EPKSSDKTHTCPPCPAPELLGGPSVFLFPPKPKDTLMISRTPEVTCVVVDVSHEDPEVKFNWYVDGVEVHNAKTKPREEQYNSTYRVVSVLTVLHQDWLNGKEYKCKVSNKALPAPIEKTISKAKGQPREPQVCTLPPSRDELTKNQVSLWCLVKGFYPSDIAVEWESNGQPENNYKTTPPVLDSDGSFFLYSKLTVDKSRWQQGNVFSCSVMHEALHNRYTQKSLSLSP light: DIVMTQSPLSLPVTPGEPASISCRSSQSLVHSNRNTYLHWYQQKPGQAPRLLIYKVSNRFSGVPDRFSGSGSGTDFTLKISRVEAEDVGVYYCGQGTQVPYTFGQGTKLEIKRTVAAPSVFIFPPSDEQLKSGTASVVCLLNNFYPREAKVQWKVDNALQSGNSQESVTEQDSKDSTYSLSSTLTLSKADYEKHKVYACEVTHQGLSSPVTKSFNRGEC | 0.78
